According to patent US20210388087A1 (Chugai, published 2021):
Changes are numbered by the printed parent chain. Names and notes keep the numbering of the source.

T1: Human CD3eg linker (human)
T1 construct: Single chain: epsilon and gamma subunits of human CD3 joined by a 29-mer linker, Flag-tag at the C-terminus; also called recombinant human CD3
T1 chain: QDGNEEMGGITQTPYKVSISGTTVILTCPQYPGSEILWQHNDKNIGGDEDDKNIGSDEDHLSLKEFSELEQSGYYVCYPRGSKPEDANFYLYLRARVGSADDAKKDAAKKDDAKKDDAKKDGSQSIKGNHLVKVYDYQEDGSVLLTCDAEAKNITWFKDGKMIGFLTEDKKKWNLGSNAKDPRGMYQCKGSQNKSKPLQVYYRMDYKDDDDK

B1: H183/L072 VH A56M (antibody, name in Kabat numbering, V domains shown)
VH: QVQLVESGGGLVQPGRSLRLSCAASGFTFSNAWMHWVRQAPGKGLEWVAQIKDKGNAYMAYYAPSVKGRFTISRDDSKNSIYLQMNSLKTEDTAVYYCHYVHYASASTVLPAFGVDAWGQGTTVTVSS
VL: DIVMTQSPLSLPVTPGEPASISCQASQELVHMNRNTYLHWYQQKPGQAPRLLIYKVSNRFPGVPDRFSGSGSGTDFTLKISRVEAEDVGVYYCAQGTSVPFTFGQGTKLEIK
B2: H183/L072 VH A60G (antibody, name in Kabat numbering, V domains shown)
VH: B1 VH with M59A, A63G
VL: B1 VL
B3: H183/L072 VH A60I (antibody, name in Kabat numbering, V domains shown)
VH: B1 VH with M59A, A63I
VL: B1 VL
B4: H183/L072 VH A57Y (antibody, name in Kabat numbering, V domains shown)
VH: B1 VH with M59A, A60Y
VL: B1 VL
B5: H183/L072 VH A57T (antibody, name in Kabat numbering, V domains shown)
VH: B1 VH with M59A, A60T
VL: B1 VL
B6: H183/L072 VH A60D (antibody, name in Kabat numbering, V domains shown)
VH: B1 VH with M59A, A63D
VL: B1 VL
B7: H183/L072 VH A57K (antibody, name in Kabat numbering, V domains shown)
VH: B1 VH with M59A, A60K
VL: B1 VL
B8: H183/L072 VH A60K (antibody, name in Kabat numbering, V domains shown)
VH: B1 VH with M59A, A63K
VL: B1 VL
B9: H183/L072 VH A56P (antibody, name in Kabat numbering, V domains shown)
VH: B1 VH with M59P
VL: B1 VL
B10: H183/L072 VH A57S (antibody, name in Kabat numbering, V domains shown)
VH: B1 VH with M59A, A60S
VL: B1 VL
B11: H183/L072 VH A60M (antibody, name in Kabat numbering, V domains shown)
VH: B1 VH with M59A, A63M
VL: B1 VL
B12: H183/L072 VH A60S (antibody, name in Kabat numbering, V domains shown)
VH: B1 VH with M59A, A63S
VL: B1 VL
B13: H183/L072 VH A57G (antibody, name in Kabat numbering, V domains shown)
VH: B1 VH with M59A, A60G
VL: B1 VL
B14: H183/L072 VH A57E (antibody, name in Kabat numbering, V domains shown)
VH: B1 VH with M59A, A60E
VL: B1 VL
B15: H183/L072 VH A60Q (antibody, name in Kabat numbering, V domains shown)
VH: B1 VH with M59A, A63Q
VL: B1 VL
B16: H183/L072 VH A60F (antibody, name in Kabat numbering, V domains shown)
VH: B1 VH with M59A, A63F
VL: B1 VL
B17: H183/L072 VH A56T (antibody, name in Kabat numbering, V domains shown)
VH: B1 VH with M59T
VL: B1 VL
B18: H183/L072 VH A60L (antibody, name in Kabat numbering, V domains shown)
VH: B1 VH with M59A, A63L
VL: B1 VL
B19: H183/L072 VH A60P (antibody, name in Kabat numbering, V domains shown)
VH: B1 VH with M59A, A63P
VL: B1 VL
B20: H183/L072 VH A60T (antibody, name in Kabat numbering, V domains shown)
VH: B1 VH with M59A, A63T
VL: B1 VL
B21: H183/L072 VH A57H (antibody, name in Kabat numbering, V domains shown)
VH: B1 VH with M59A, A60H
VL: B1 VL
B22: H183/L072 VH A60W (antibody, name in Kabat numbering, V domains shown)
VH: B1 VH with M59A, A63W
VL: B1 VL
B23: H183/L072 VH A56S (antibody, name in Kabat numbering, V domains shown)
VH: B1 VH with M59S
VL: B1 VL
B24: H183/L072 VH A57V (antibody, name in Kabat numbering, V domains shown)
VH: B1 VH with M59A, A60V
VL: B1 VL
B25: H183/L072 VH A56V (antibody, name in Kabat numbering, V domains shown)
VH: B1 VH with M59V
VL: B1 VL
B26: H183/L072 VH A56N (antibody, name in Kabat numbering, V domains shown)
VH: B1 VH with M59N
VL: B1 VL
B27: H183/L072 VH A56W (antibody, name in Kabat numbering, V domains shown)
VH: B1 VH with M59W
VL: B1 VL
B28: H183/L072 VH A57F (antibody, name in Kabat numbering, V domains shown)
VH: B1 VH with M59A, A60F
VL: B1 VL
B29: H183/L072 VH A60N (antibody, name in Kabat numbering, V domains shown)
VH: B1 VH with M59A, A63N
VL: B1 VL
B30: H183/L072 VH A57P (antibody, name in Kabat numbering, V domains shown)
VH: B1 VH with M59A, A60P
VL: B1 VL
B31: H183/L072 VH A56R (antibody, name in Kabat numbering, V domains shown)
VH: B1 VH with M59R
VL: B1 VL
B32: H183/L072 VH A57Q (antibody, name in Kabat numbering, V domains shown)
VH: B1 VH with M59A, A60Q
VL: B1 VL
B33: H183/L072 VH A56Q (antibody, name in Kabat numbering, V domains shown)
VH: B1 VH with M59Q
VL: B1 VL
B34: H183/L072 VH A57D (antibody, name in Kabat numbering, V domains shown)
VH: B1 VH with M59A, A60D
VL: B1 VL
B35: H183/L072 VH A57M (antibody, name in Kabat numbering, V domains shown)
VH: B1 VH with M59A, A60M
VL: B1 VL
B36: H183/L072 VH A60R (antibody, name in Kabat numbering, V domains shown)
VH: B1 VH with M59A, A63R
VL: B1 VL
B37: H183/L072 VH A57L (antibody, name in Kabat numbering, V domains shown)
VH: B1 VH with M59A, A60L
VL: B1 VL
B38: H183/L072 VH A57W (antibody, name in Kabat numbering, V domains shown)
VH: B1 VH with M59A, A60W
VL: B1 VL
B39: H183/L072 VH A56Y (antibody, name in Kabat numbering, V domains shown)
VH: B1 VH with M59Y
VL: B1 VL
B40: H183/L072 VH A57N (antibody, name in Kabat numbering, V domains shown)
VH: B1 VH with M59A, A60N
VL: B1 VL
B41: H183/L072 VH A60V (antibody, name in Kabat numbering, V domains shown)
VH: B1 VH with M59A, A63V
VL: B1 VL
B42: H183/L072 VH A57R (antibody, name in Kabat numbering, V domains shown)
VH: B1 VH with M59A, A60R
VL: B1 VL
B43: H183/L072 VH A60H (antibody, name in Kabat numbering, V domains shown)
VH: B1 VH with M59A, A63H
VL: B1 VL
B44: H183/L072 VH A60E (antibody, name in Kabat numbering, V domains shown)
VH: B1 VH with M59A, A63E
VL: B1 VL
B45: H183/L072 VH A57I (antibody, name in Kabat numbering, V domains shown)
VH: B1 VH with M59A, A60I
VL: B1 VL

Biological target: T1, Human CD3eg linker
Assay: Biacore SPR, vs template H183/L072

fold change of affinity [fold]	Binder
1	B1
1.9	B2
0.6	B3
0.4	B4
1.3	B5
1.3	B6
1.5	B7
0.9	B8
0.3	B9
1.1	B10
1	B11
1.3	B12
0.7	B13
1	B14
1.1	B15
0.7	B16
0.7	B17
1.2	B18
0.5	B19
0.9	B20
0.9	B21
1	B22
0.9	B23

fold change of affinity [fold]	Binder
0.9	B24
0.7	B25
0.9	B26
0.8	B27
0.4	B28
1	B29
0.9	B30
1.3	B31
1.1	B32
1	B33
1	B34
0.9	B35
1	B36
0.5	B37
0.4	B38
0.7	B39
0.7	B40
1	B41
1.3	B42
1.1	B43
1.1	B44
0.6	B45
